Source: article PMC9584609, “Determination of oligomeric states of proteins via dual-color colocalization with single molecule localization microscopy” (eLife, 2022)

Biological target: the molecule itself
Experiment: dual-color colocalization single molecule localization microscopy (DCC-SMLM); HEK293T cells transiently transfected, fixed with cold methanol; each subunit C-terminally tagged with mVenus and PAmCherry; colocalization ratio compared with the calibrated DCC model (coefficient of mismatch M^2) and with reference proteins (two-sample K.-S. test)

B1: prestin (Slc26a5) tagged with mVenus and PAmCherry (natural protein, rat, UniProt Q9EPH0 1-744, looked up)
chain: MDHAEENEIPAETQKYLVERPIFSHPVLQERLHVKDKVTDSIGDKLKQAFTCTPKKVRNIIYMFLPITKWLPAYKFKEYVLGDLVSGISTGVLQLPQGLAFAMLAAVPPVFGLYSSFYPVIMYCFFGTSRHISIGPFAVISLMIGGVAVRLVPDDIVIPGGVNATNGTEARDALRVKVAMSVTLLSGIIQFCLGVCRFGFVAIYLTEPLVRGFTTAAAVHVFTSMLKYLFGVKTKRYSGIFSVVYSTVAVLQNVKNLNVCSLGVGLMVFGLLLGGKEFNERFKEKLPAPIPLEFFAVVMGTGISAGFNLHESYSVDVVGTLPLGLLPPANPDTSLFHLVYVDAIAIAIVGFSVTISMAKTLANKHGYQVDGNQELIALGICNSIGSLFQTFSISCSLSRSLVQEGTGGKTQLAGCLASLMILLVILATGFLFESLPQAVLSAIVIVNLKGMFMQFSDLPFFWRTSKIELTIWLTTFVSSLFLGLDYGLITAVIIALLTVIYRTQSPSYTVLGQLPDTDVYIDIDAYEEVKEIPGIKIFQINAPIYYANSDLYSSALKRKTGVNPAIIMGARRKAMRKYAKEVGNANIANATVVKVDAEVDGENATKPEEEDDEVKFPPIVIKTTFPEELQRFLPQGENIHTVILDFTQVNFMDSVGVKTLAGIVKEYGDVGIYVYLAGCSAQVVNDLTSNRFFENPALKELLFHSIHDAVLGSQVREAMAEQETTVLPPQEDMEPNATPTTPEA
notes: prestin (Slc26a5), rat motor protein of cochlear outer hair cells; The same construct was used for DCC-SMLM and hrCNE; also called SLC26A5/prestin; source: HEK293T, transfected; on fixed cells (DCC-SMLM) and in lysate (digitonin or DDM, hrCNE); not shown: mVenus, C-terminal, kept; PAmCherry, C-terminal, kept
stoichiometry N: 2

B2: SLC26A3 tagged with mVenus and PAmCherry (natural protein, human, UniProt P40879 1-764, looked up)
chain: MIEPFGNQYIVARPVYSTNAFEENHKKTGRHHKTFLDHLKVCCSCSPQKAKRIVLSLFPIASWLPAYRLKEWLLSDIVSGISTGIVAVLQGLAFALLVDIPPVYGLYASFFPAIIYLFFGTSRHISVGPFPILSMMVGLAVSGAVSKAVPDRNATTLGLPNNSNNSSLLDDERVRVAAAASVTVLSGIIQLAFGILRIGFVVIYLSESLISGFTTAAAVHVLVSQLKFIFQLTVPSHTDPVSIFKVLYSVFSQIEKTNIADLVTALIVLLVVSIVKEINQRFKDKLPVPIPIEFIMTVIAAGVSYGCDFKNRFKVAVVGDMNPGFQPPITPDVETFQNTVGDCFGIAMVAFAVAFSVASVYSLKYDYPLDGNQELIALGLGNIVCGVFRGFAGSTALSRSAVQESTGGKTQIAGLIGAIIVLIVVLAIGFLLAPLQKSVLAALALGNLKGMLMQFAEIGRLWRKDKYDCLIWIMTFIFTIVLGLGLGLAASVAFQLLTIVFRTQFPKCSTLANIGRTNIYKNKKDYYDMYEPEGVKIFRCPSPIYFANIGFFRRKLIDAVGFSPLRILRKRNKALRKIRKLQKQGLLQVTPKGFICTVDTIKDSDEELDNNQIEVLDQPINTTDLPFHIDWNDDLPLNIEVPKISLHSLILDFSAVSFLDVSSVRGLKSILQEFIRIKVDVYIVGTDDDFIEKLNRYEFFDGEVKSSIFFLTIHDAVLHILMKKDYSTSKFNPSQEKDGKIDFTINTNGGLRNRVYEVPVETKF
notes: SLC26A3, human epithelial chloride-bicarbonate exchanger; The same construct was used for DCC-SMLM and hrCNE; also called epithelial chloride-bicarbonate exchanger SLC26A3; source: HEK293T, transfected; on fixed cells (DCC-SMLM) and in lysate (digitonin or DDM, hrCNE); not shown: mVenus, C-terminal, kept; PAmCherry, C-terminal, kept
stoichiometry N: 2
